US20230038638A1, “COMPLEMENT FACTOR I-RELATED COMPOSITIONS AND METHODS” (published 2023)

Columns and labels:
[1] = molecular target: soluble human C3b (human) (UniProt P01024)
human C4b (human) = molecular target: T1, human C4b (human) (UniProt P0C0L5)
T1 sequence: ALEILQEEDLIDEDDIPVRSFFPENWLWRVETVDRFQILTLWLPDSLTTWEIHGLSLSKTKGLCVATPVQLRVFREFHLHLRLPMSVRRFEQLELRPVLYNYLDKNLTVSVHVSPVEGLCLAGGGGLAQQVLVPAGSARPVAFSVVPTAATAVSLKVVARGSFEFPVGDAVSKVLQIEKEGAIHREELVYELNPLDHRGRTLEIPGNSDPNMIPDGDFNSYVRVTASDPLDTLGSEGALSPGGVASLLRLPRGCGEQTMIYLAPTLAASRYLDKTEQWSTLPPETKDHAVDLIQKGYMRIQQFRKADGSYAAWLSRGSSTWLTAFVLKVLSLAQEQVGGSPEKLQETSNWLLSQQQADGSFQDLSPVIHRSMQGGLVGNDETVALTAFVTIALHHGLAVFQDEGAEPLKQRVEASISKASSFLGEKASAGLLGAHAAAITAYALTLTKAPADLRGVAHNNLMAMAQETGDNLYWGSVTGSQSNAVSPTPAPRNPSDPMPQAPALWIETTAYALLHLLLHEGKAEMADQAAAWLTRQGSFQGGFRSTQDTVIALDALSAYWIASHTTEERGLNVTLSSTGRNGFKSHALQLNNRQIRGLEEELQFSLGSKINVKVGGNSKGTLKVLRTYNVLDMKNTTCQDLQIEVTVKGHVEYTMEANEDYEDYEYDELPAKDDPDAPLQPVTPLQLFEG

Chain of Δ(K1-P305); GGSSGG (SEQ ID NO: 6); fH_CCP2-3 (enzyme) (chain): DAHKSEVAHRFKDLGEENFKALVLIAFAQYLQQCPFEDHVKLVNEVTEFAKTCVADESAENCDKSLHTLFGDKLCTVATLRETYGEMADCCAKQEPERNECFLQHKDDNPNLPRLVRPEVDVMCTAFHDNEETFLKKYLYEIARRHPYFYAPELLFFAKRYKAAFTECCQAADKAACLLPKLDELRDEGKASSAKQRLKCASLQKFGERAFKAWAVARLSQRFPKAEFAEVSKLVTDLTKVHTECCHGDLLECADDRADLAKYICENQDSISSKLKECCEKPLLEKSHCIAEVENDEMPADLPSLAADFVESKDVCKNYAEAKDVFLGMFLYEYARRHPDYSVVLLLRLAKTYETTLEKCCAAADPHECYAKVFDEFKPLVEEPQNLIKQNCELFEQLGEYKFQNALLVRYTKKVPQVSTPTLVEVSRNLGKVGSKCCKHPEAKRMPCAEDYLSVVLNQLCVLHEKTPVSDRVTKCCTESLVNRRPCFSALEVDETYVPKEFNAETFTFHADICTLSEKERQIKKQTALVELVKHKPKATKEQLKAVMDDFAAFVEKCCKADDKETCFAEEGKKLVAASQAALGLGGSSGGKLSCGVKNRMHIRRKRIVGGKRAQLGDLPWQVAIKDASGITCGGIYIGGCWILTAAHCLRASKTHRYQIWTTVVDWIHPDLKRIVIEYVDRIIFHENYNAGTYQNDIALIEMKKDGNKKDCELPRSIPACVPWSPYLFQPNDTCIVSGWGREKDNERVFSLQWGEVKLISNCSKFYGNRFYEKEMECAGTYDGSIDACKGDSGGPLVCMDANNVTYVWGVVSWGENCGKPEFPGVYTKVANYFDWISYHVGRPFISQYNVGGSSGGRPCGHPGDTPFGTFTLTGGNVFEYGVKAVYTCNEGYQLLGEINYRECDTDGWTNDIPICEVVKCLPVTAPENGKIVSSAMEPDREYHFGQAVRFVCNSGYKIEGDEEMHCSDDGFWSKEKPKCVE

| Substance | iC3b Screen Ref Fold (fold vs CFI-HSA wild type) [1] | C4b Screen Ref Fold (fold vs CFI-HSA wild type) (human C4b (human)) | further results |
| --- | --- | --- | --- |
| CFI-HSA variant F559L; V565T (enzyme) |  |  | iC3b Screen Ref Fold (fold of CFI-HSA wild type) [1]: 0.54; C4b Screen Ref Fold (fold of CFI-HSA wild type) (human C4b (human)): 0.28 |
| CFI-HSA variant F559Y (enzyme) |  |  | iC3b Screen Ref Fold (fold relative to CFI-HSA wild type) [1]: 1.23; C4b Screen Ref Fold (fold relative to CFI-HSA wild type) (human C4b (human)): 0.66 |
| CFI-HSA D549M (enzyme) | 0.45 | 0.23 |  |
| CFI-HSA variant I322V; V323I; R327P (enzyme) | 0.36 | 0.38 |  |
| CFI-HSA variant Y408L; P558S (enzyme) |  |  | iC3b Screen Ref Fold (fold of CFI-HSA wild type) [1]: 0.86; C4b Screen Ref Fold (fold of CFI-HSA wild type) (human C4b (human)): 0.31 |
| CFI-HSA K423A (enzyme) | 0.23 | 0.11 |  |
| CFI-HSA variant K14E; E487K (enzyme) |  |  | iC3b Screen Ref Fold (fold of CFI-HSA wild type) [1]: 1.43; C4b Screen Ref Fold (fold of CFI-HSA wild type) (human C4b (human)): 0.7 |
| CFI-HSA variant I322V; V323I (enzyme) | 0.39 | 0.31 |  |
| CFI-HSA E457G; E461Q; R557K (enzyme) | 1.81 | 4.28 |  |
| CFI-HSA F399G (enzyme) | 0.65 | 0.05 |  |
| CFI-HSA variant D425R; Y408L; N531G; E457G; E461Q; R462K; F464Y; E416A (enzyme) |  |  | iC3b Screen Ref Fold (fold of CFI-HSA wild type) [1]: 1.63; C4b Screen Ref Fold (fold of CFI-HSA wild type) (human C4b (human)): 3.88 |
| CFI-HSA K424Y (enzyme) | 0.95 | 0.42 |  |
| CFI-HSA K424H (enzyme) | 1.46 | 0.53 |  |
| CFI-HSA variant Y408L; N531G; P535G; K534Q (enzyme) |  |  | iC3b Screen Ref Fold (fold of CFI-HSA wild type) [1]: 1.2; C4b Screen Ref Fold (fold of CFI-HSA wild type) (human C4b (human)): 1.47 |
| Δ(K1-P305); GGSSGG (SEQ ID NO: 6); fH_CCP2-3 (enzyme) | 0.01 | 0.05 |  |
| CFI-HSA variant Y408L; WT; GGSSGG (SEQ ID NO: 6); CR1(ccp15-17) (from UniProt P17927) (enzyme) |  |  | iC3b Screen Ref Fold (fold of CFI-HSA wild type) [1]: 0.03; C4b Screen Ref Fold (fold of CFI-HSA wild type) (human C4b (human)): 3.64 |
| CFI-HSA R371G (enzyme) | 0.17 | 0.15 |  |
| CFI-HSA variant Y408R (enzyme) | 0.24 | 0.07 |  |
| CFI-HSA A405G (enzyme) | 1.74 | 1.06 |  |
| CFI-HSA K424F (enzyme) | 1.04 | 0.35 |  |
| CFI-HSA variant E457G; WT; GGSSGG (SEQ ID NO: 6); CR1(ccp15-17) (from UniProt P17927) (enzyme) |  |  | iC3b Screen Ref Fold (fold of CFI-HSA wild type) [1]: 0.1; C4b Screen Ref Fold (fold of CFI-HSA wild type) (human C4b (human)): 6.11 |
| CFI-HSA variant P558S; F559L (enzyme) |  |  | iC3b Screen Ref Fold (fold of CFI-HSA wild type) [1]: 0.54; C4b Screen Ref Fold (fold of CFI-HSA wild type) (human C4b (human)): 0.9 |
| CFI-HSA variant N402E (enzyme) | 0.75 | 1.64 |  |
| CFI-HSA variant Y553H; F559L (enzyme) |  |  | iC3b Screen Ref Fold (fold of CFI-HSA wild type) [1]: 0.32; C4b Screen Ref Fold (fold of CFI-HSA wild type) (human C4b (human)): 1.16 |
| CFI-HSA K424N (enzyme) | 1.48 | 0.5 |  |
| CFI-HSA variant D425K; E457G; E461Q; N531G; R557A (enzyme) |  |  | iC3b Screen Ref Fold (fold relative to CFI-HSA wild type) [1]: 0.08; C4b Screen Ref Fold (fold relative to CFI-HSA wild type) (human C4b (human)): 2.8 |

| Substance | iC3b Screen Ref Fold (fold vs CFI-HSA wild type) [1] | C4b Screen Ref Fold (fold vs CFI-HSA wild type) (human C4b (human)) | further results |
| --- | --- | --- | --- |
| CFI-HSA H370G (enzyme) | 0.52 | 0.13 |  |
| CFI-HSA variant N85Q (enzyme) | 2.47 | 0.66 |  |
| CFI-HSA variant K504G (enzyme) | 0.17 | 0.15 |  |
| CFI-HSA variant Y553F (enzyme) |  |  | iC3b Screen Ref Fold (fold of CFI-HSA wild type) [1]: 0.67; C4b Screen Ref Fold (fold of CFI-HSA wild type) (human C4b (human)): 1.37 |
| CFI-HSA variant D506E (enzyme) | 0 | 0.01 |  |
| CFI-HSA variant Y403F; G406A; D425K; E457G; E461Q; N531G (enzyme) |  |  | iC3b Screen Ref Fold (fold relative to CFI-HSA wild type) [1]: 0.14; C4b Screen Ref Fold (fold relative to CFI-HSA wild type) (human C4b (human)): 4.12 |
| CFI-HSA variant G556P (enzyme) |  |  | iC3b Screen Ref Fold (fold of CFI-HSA wild type) [1]: 0.39; C4b Screen Ref Fold (fold of CFI-HSA wild type) (human C4b (human)): 0.65 |
| CFI-HSA K424E (enzyme) | 1.08 | 0.23 |  |
| CFI-HSA K423E (enzyme) | 0.61 | 0.32 |  |
| CFI-HSA Y408L; N531G; ΔC-term (Δ558-PFISQYNV (SEQ ID NO: 14)-565) (enzyme) | 0.3 | 1.85 |  |
| CFI-HSA variant Y408L; N531G; WT; GGSSGG (SEQ ID NO: 6); CR1(ccp15-17) (from UniProt P17927) (enzyme) |  |  | iC3b Screen Ref Fold (fold of CFI-HSA wild type) [1]: 0.22; C4b Screen Ref Fold (fold of CFI-HSA wild type) (human C4b (human)): 4.17 |
| CFI-HSA D549W (enzyme) | 0.68 | 0.25 |  |
| CFI-HSA E457G; D425R; E530Y (enzyme) | 1.73 | 4.29 |  |
| CFI-HSA D425R; Y408L; N531G; E457G; E461Q; R462K; F464Y; E530Y (enzyme) | 1.57 | 4.98 |  |
| CFI-HSA R557P (enzyme) | 0.04 | 3 |  |
| CFI-HSA K424V (enzyme) | 0.89 | 0.29 |  |
| CFI-HSA R365N (enzyme) | 0.04 | 0.1 |  |
| CFI-HSA W528G (enzyme) | -0.05 | 0.01 |  |
| CFI-HSA variant V565I; P558S (enzyme) |  |  | iC3b Screen Ref Fold (fold of CFI-HSA wild type) [1]: 0.85; C4b Screen Ref Fold (fold of CFI-HSA wild type) (human C4b (human)): 1.41 |
| CFI-HSA R365V (enzyme) | 0.43 | 1.25 |  |
| CFI-HSA R557G (enzyme) | 0.04 | 1.61 |  |
| CFI-HSA P538G (enzyme) | -0.01 | 0.07 |  |
| CFI-HSA E457G; E530Y (enzyme) | 2.03 | 2.48 |  |
| (HSA-GS)-V311-V565 - G(10) - K1-G310; C309S; C435S (enzyme) | 0.03 | 0.21 |  |
| CFI-HSA variant Y408L; E457G; WT; GGSSGG (SEQ ID NO: 6); CR1(ccp15-17) (from UniProt P17927) (enzyme) |  |  | iC3b Screen Ref Fold (fold of CFI-HSA wild type) [1]: 0.12; C4b Screen Ref Fold (fold of CFI-HSA wild type) (human C4b (human)): 3.18 |
